In patent US20170145104A1:

Key:
[1] = biological target: human GITR, membrane bound (on activated human T cells and on 3A9-hGITR cells) (human) (UniProt Q9Y5U5); assay: FACS competition on activated human CD4+ T cells: GITRL pre-bound and titrated, then 28F3.hIgG1 (m11) at a fixed 0.5 ug/mL, detected with anti-human IgG Fc-PE; partial block; unit from the axis
[2] = biological target: human GITR, membrane bound (on activated human T cells and on 3A9-hGITR cells) (human) (UniProt Q9Y5U5); assay: FACS: recombinant hGITR-L trimer titrated on PHA-activated human T cells, CD8 gate, PE anti-HA tag; direct binding curve; the sheet's table heads the row 'IC50', the text calls it EC50; unit from the axis
[3] = biological target: human GITR, membrane bound (on activated human T cells and on 3A9-hGITR cells) (human) (UniProt Q9Y5U5); assay: FACS competition on PHA-activated human T cells, GITR-L pre-bound, competitor 28F3-hIgG1 at 0.5 ug/ml; inhibition partial
[4] = biological target: human GITR, membrane bound (on activated human T cells and on 3A9-hGITR cells) (human) (UniProt Q9Y5U5); assay: FACS, PHA-activated human CD4+ and CD8+ T cells, PE anti-HA tag
[5] = biological target: human GITR, membrane bound (on activated human T cells and on 3A9-hGITR cells) (human) (UniProt Q9Y5U5); assay: FACS: recombinant hGITR-L trimer titrated on PHA-activated human T cells, CD4 gate, PE anti-HA tag; direct binding curve; the sheet's table heads the row 'IC50', the text calls it EC50; unit from the axis
[6] = biological target: human GITR, membrane bound (on activated human T cells and on 3A9-hGITR cells) (human) (UniProt Q9Y5U5); assay: FACS on activated T cells, GMFI (PE); EC50 table under the plot; unit from the axis; fit of a flat control curve, see non_binding

Chain of human GITR, membrane bound (on activated human T cells and on 3A9-hGITR cells) (human) (Q9Y5U5 26-241 limits assumed, form in doubt): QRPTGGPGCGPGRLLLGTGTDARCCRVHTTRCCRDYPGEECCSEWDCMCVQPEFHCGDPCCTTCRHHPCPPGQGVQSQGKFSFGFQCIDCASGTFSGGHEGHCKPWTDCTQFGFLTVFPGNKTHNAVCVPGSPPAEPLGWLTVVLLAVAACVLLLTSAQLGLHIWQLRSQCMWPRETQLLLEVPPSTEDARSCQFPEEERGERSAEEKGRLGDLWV

IC50 [1] | EC50 [2] | IC50 [3] | EC50 [4] | EC50 [5] | EC50 [6] | Substance
0.00244 µg/mL | 0.0163 µg/mL | 0.0024 µg/mL | 0.016 µg/mL | 0.016 µg/mL |  | recombinant human GITR ligand trimer (R&D Systems 6987-GL)
 |  |  |  |  | 132 nM | unrelated hIgG1 (antibody)
 |  |  |  |  | 6.72 nM | unrelated hIgG2 (antibody)
